Laboratory results as given in patent US20020037516.
Like-named read-outs stand apart in the source and are kept apart here.

Experiments:
[1] = system: ErmE erythromycin resistance methyltransferase; conditions: Km of methylation; 10 mM MgCl2, 100 mM NH4Cl, pH 7.8, 30 min 25 C
[2] = biological target: TSR thiostrepton resistance methyltransferase (tsr) (Streptomyces azureus) (UniProt P18644); conditions: Km of methylation; 5 mM MgCl2, 25 mM NH4Cl, pH 7.5, 25 C
Ribosomal protein L11 = test: inhibition; conditions: affinity from inhibition of TSR methylation; 5 mM MgCl2, 25 mM NH4Cl, pH 7.5, 25 C
[3] = biological target: TSR thiostrepton resistance methyltransferase (tsr) (Streptomyces azureus) (UniProt P18644); conditions: Km +/-3 nM, 15 experiments; 5 mM MgCl2, 25 C

## 23S rRNA (Erm substrate)
[1]
  activity: 23 nM

## E. coli mGAR 60-mer
[2]
  activity: 50 nM
Ribosomal protein L11
  Ki: 84 nM

## GAR 58-mer RNA
[3]
  activity: 47 nM
